# Source: US20160138049A1, “OXYGEN-TOLERANT CoA-ACETYLATING [sequence] DEHYDROGENASE CONTAINING PATHWAY FOR BIOFUEL PRODUCTION” (The Regents of the University of California, priority 2013, published 2016)
# T1: Lactobacillus brevis PduP, CoA-acylating propionaldehyde dehydrogenase (PduP_L.bre, YP_795711, SEQ ID NO:47 and 48), poly-His6 tagged (Levilactobacillus brevis, UniProt Q03Q42)
# T1 sequence (Q03Q42 1-477): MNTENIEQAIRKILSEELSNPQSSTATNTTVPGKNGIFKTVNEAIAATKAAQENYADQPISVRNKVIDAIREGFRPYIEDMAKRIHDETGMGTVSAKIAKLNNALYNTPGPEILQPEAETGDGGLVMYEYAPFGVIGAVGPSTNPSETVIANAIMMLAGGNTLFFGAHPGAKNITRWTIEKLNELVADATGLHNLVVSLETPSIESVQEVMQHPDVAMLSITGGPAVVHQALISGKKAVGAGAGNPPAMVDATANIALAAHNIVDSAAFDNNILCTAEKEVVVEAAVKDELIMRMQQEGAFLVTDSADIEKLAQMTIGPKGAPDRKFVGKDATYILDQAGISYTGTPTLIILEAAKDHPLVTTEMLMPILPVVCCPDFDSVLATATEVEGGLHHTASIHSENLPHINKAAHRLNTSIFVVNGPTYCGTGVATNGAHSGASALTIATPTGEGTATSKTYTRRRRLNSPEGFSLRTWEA
# B1: S. ent: CoA-acylating propionaldehyde dehydrogenase (PduP) from Salmonella enterica, AAD39015; SEQ ID NO:33 and 34 (protein, listed as Salmonella enterica)
# chain: MNTSELETLIRTILSEQLTTPAQTPVQPQGKGIFQSVSEAIDAAHQAFLRYQQCPLKTRSAIISAMRQELTPLLAPLAEESANETGMGNKEDKFLKNKAALDNTPGVEDLTTTALTGDGGMVLFEYSPFGVIGSVAPSTNPTETIINNSISMLAAGNSIYFSPHPGAKKVSLKLISLIEEIAFRCCGIRNLVVTVAEPTFEATQQMMAHPRIAVLAITGGPGIVAMGMKSGKKVIGAGAGNPPCIVDETADLVKAAEDIINGASFDYNLPCIAEKSLIVVESVAERLVQQMQTFGALLLSPADTDKLRAVCLPEGQANKKLVGKSPSAMLEAAGIAVPAKAPRLLIALVNADDPWVTSEQLMPMLPVVKVSDFDSALALALKVEEGLHHTAIMHSQNVSRLNLAARTLQTSIFVKNGPSYAGIGVGGEGFTTFTIATPTGEGTTSARTFARSRRCVLTNGFSIR
# B2: L. mon: PduP homologue from Listeria monocytigenes, NP_464690; SEQ ID NO:49 and 50 (protein)
# chain: MESLELEKLVKKVLLEKLAEQKGIPVKTMTKGAKSGVFDTVDEAVQAAVIAQNSYKEKSLEERRNVVKAIREALYPEIESIAARAVAETGMGNVADKILKNTLAIEKTPGVEDLYTEVATGDNGMTLYELSPYGVIGAVAPSTNPTETLICNTIGMLAAGNAVFYSPHPGAKNISLWLIEKLNTIVRESCGVDNLVVTVEKPSIQAAQEMMNHPKVPLLVITGGPGVVLQAMQSGKKVIGAGAGNPPSIVDETANIEKAAADIVDGASFDHNILCIAEKSVVAVDSIADFLMFQMEKNGALHVTNPSDIQKLEKVAVTDKGVTNKKLVGKSASEILKEAGIACDFSPRLIIVETEKTHPFATVELLMPIVPVVRVPNFEEALEVAIELEQGLHHTATMHSQNISRLNKAARDMQTSIFVKNGPSFAGLGFRGEGSTTFTIATPTGEGTTTARHFARRRRCVLTDGFSIR
# modifications: Listeria monocytogenes
# B3: A. hyd: PduP homologue from Aeromonas hydrophila, YP_855873; SEQ ID NO:43 and 44 (protein, listed as Aeromonas hydrophila)
# chain: MLSRQNARELVRNAKQAQVIMATFSQQKIDAIVKNVAEEAARHAETLAKMAAEETGFGNWQDKVLKNRFASLHVYDAIKEMKTVGIIHDDQAKKVMDVGVPLGVICALVPSTNPTSTIFYKTLIALKAGNAIIFSPHPGARQCSWKAIEIVKRAAEAAGAPAGIVDGVTQLTLEATSELMHSKDVSLILATGGEGMVRAAYASGTPTISGGPGNGPAFIERSADIHQAVKDIITSKTFDNGVICASEQSIIVERCIYDEVHRELAAQGAYFMNEDEAARMAALLLRPNGTINPKVVGKTALHLSQLAGFSVPPSTRVLVAEQTTVSHSNPYSREKLCPVLGLYVEEEWRAACHRVVELLTNEGLGHTLVIHTRNQDVIRQFSLEKPVNRILINTPAALGGIGATTNLTPALTLGCGAVGGGSSSDNVGPMNLLNIRKVGYGVRTIEELRAPIQPVAVQPASAAPTAPQPCSILDDARFSAPAPACHSADDRFAGASAEVGGEISEQNVERVIRQVLERLGK
# B4: P. gin: PduP homologue from Porphyromonas gingivalis, YP_001928839; SEQ ID NO:51 and 52 (protein, listed as Porphyromonas gingivalis)
# chain: MEIKEMVSLARKAQKEYQATHNQEAVDNICRAAAKVIYENAAILAREAVDETGMGVYEHKVAKNQGKSKGVWYNLHNKKSVGILNIDERTGMIEIAKPIGVVGAVTPTTNPIVTPMSNIIFALKTCNAIIIAPHPRSKKCSAHAVRLIKEAIAPFNVPEGMVQIIEEPSIEKTQELMGAVDVVVATGGMGMVKSAYSSGKPSFGVGAGNVQVIVDSNIDFEAAAEKIITGRAFDNGIICSGEQSIIYNEADKEAVFTAFRNHGAYFCDEAEGDRARAAIFENGAIAKDVVGQSVAFIAKKANINIPEGTRILVVEARGVGAEDVICKEKMCPVMCALSYKHFEEGVEIARTNLANEGNGHTCAIHSNNQAHIILAGSELTVSRIVVNAPSATTAGGHIQNGLAVTNTLGCGSWGNNSISENFTYKHLLNISRIAPLNSSIHIPDDKEIWEL
# Legend:
# [1] = target: Listeria monocytigenes PduP, CoA-acylating propionaldehyde dehydrogenase (PduP_L.mon, NP_464690, SEQ ID NO:49 and 50), poly-His6 tagged (Listeria monocytogenes, UniProt Q8Y7V4); assay: Kinetic parameters of PduP (CoA-acylating aldehyde dehydrogenase), NADH depletion at 340 nm; settings: pH 7.15, 30° C., 500 μM NADH, 1 mM DTT, acyl-CoA 0.03 mM to 2 mM
# Method: (§1) Protein purification was done by using His-Spin Protein miniprep purification kit from Zymo following manufacturer's manual. Overnight culture of E. coli strain BL-21(DE3) harboring different pCDF-pdup plasmid was used to inoculate fresh 20 ml LB. The newly inoculated culture was incubated at 37° C. until OD600 nm reaches 0.6 which was then induced with 1 mM IPTG. The induced cultures were then incubated overnight in 30° C. rotary shaker to allow protein expression. The cultures were then harvested by centrifugation at 4,300×g for 20 min. The pellet was then resuspended with 1 mL of Zymo His-binding buffer and mixed with 1 mL of 0.1 mm glass beads (Biospec). The sample was then homogenated using TissueLyser II (Quiagen).
# (§2) Enzyme assays were conducted by using Bio-Tek PowerWave XS microplate spectrophotometer. CoA-acylating aldehyde dehydrogenase activity was measured by the decrease of absorbance at 340 nm, corresponding to depletion of NADH. […] For determining specific activity for other chain length acyl-CoA, 500 μM was used. The mixture excluding acyl-CoA was incubated for 5 minutes at 30° C. The addition of the acyl-CoA initiated the reaction. kcat and Km were determined by nonlinear regression fitting to Michaelis-Menten equation using graphing software Origin.
# (§3) To characterize these PduP homologues, plasmids harboring individual pduP genes were constructed with a poly-His6 tag (plasmids pCDF-pduP_ahyd, pCDF-pdup_kpne, pCDF-pdup_lbre, pCDF-pdup_lmon, pCDF-pdup_sent, and pCDF-pdup_pgin). PduP homologues were then purified under aerobic condition without cleaving off His tags. The activities of the enzymes were determined using acyl-CoA with different chain lengths, and the disappearance of NADH was monitored.
# (§4) The efficiency of these PduP homologues were assessed.
# [2] = target: Porphyromonas gingivalis PduP, CoA-acylating propionaldehyde dehydrogenase (PduP_P.gin, YP_001928839, SEQ ID NO:51 and 52), poly-His6 tagged (Porphyromonas gingivalis, UniProt B2RIP7); assay: as above; settings: pH 7.15, 30° C., 500 μM NADH, 1 mM DTT, acyl-CoA 0.03 mM to 2 mM
# Method: as §1, §2, §3, §4
# [3] = target: Klebsiella pneumoniae PduP, CoA-acylating propionaldehyde dehydrogenase (PduP_K.pne, YP_001336844, SEQ ID NO:45 and 46), poly-His6 tagged (Klebsiella pneumoniae, UniProt A0ACD7U6D7); assay: as above; settings: pH 7.15, 30° C., 500 μM NADH, 1 mM DTT, acyl-CoA 0.03 mM to 2 mM
# Sequence of Klebsiella pneumoniae PduP, CoA-acylating propionaldehyde dehydrogenase (PduP_K.pne, YP_001336844, SEQ ID NO:45 and 46), poly-His6 tagged (A0ACD7U6D7 entry or part of it): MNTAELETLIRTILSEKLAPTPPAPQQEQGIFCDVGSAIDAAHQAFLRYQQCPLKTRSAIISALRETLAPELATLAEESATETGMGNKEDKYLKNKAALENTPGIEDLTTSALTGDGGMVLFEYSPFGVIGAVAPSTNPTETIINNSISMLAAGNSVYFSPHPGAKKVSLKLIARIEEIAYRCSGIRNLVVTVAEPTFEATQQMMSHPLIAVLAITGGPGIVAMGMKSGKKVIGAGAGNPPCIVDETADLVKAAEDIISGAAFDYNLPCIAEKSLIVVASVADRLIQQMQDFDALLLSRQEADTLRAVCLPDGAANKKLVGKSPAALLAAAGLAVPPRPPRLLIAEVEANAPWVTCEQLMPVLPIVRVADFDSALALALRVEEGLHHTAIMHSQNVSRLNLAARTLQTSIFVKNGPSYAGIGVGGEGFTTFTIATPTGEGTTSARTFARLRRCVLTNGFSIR
# Method: as §1, §2, §3, §4
# [4] = target: Salmonella enterica PduP, CoA-acylating propionaldehyde dehydrogenase (PduP_S.ent, AAD39015, SEQ ID NO:33 and 34), poly-His6 tagged (Salmonella enterica, UniProt Q9XDN1); assay: as above; settings: pH 7.15, 30° C., 500 μM NADH, 1 mM DTT, acyl-CoA 0.03 mM to 2 mM
# Method: as §1, §2, §3, §4
# [5] = target: T1, Lactobacillus brevis PduP, CoA-acylating propionaldehyde dehydrogenase (PduP_L.bre, YP_795711, SEQ ID NO:47 and 48), poly-His6 tagged; assay: as above; assay type: biochemical; settings: pH 7.15, 30° C., 500 μM NADH, 1 mM DTT, acyl-CoA 0.03 mM to 2 mM
# Method: as §1, §2, §3, §4
# [6] = system: CC(=O)SCCNC(=O)CCNC(=O)[C@H](O)C(C)(C)COP(=O)(O)OP(=O)(O)OC[C@H]1O[C@@H](n2cnc3c(N)ncnc32)[C@H](O)[C@@H]1OP(=O)(O)O; assay: purified protein, by the assay type; settings: other: pH 7.15, 30° C., 500 μM NADH, 1 mM DTT, acyl-CoA 0.03 mM to 2 mM
# Method: (§5) Enzyme assays were conducted by using Bio-Tek PowerWave XS microplate spectrophotometer. CoA-acylating aldehyde dehydrogenase activity was measured by the decrease of absorbance at 340 nm, corresponding to depletion of NADH. […] The addition of the acyl-CoA initiated the reaction. kcat and Km were determined by nonlinear regression fitting to Michaelis-Menten equation using graphing software Origin.
# [7] = system: CCCC(=O)SCCNC(=O)CCNC(=O)[C@H](O)C(C)(C)COP(=O)(O)OP(=O)(O)OC[C@H]1O[C@@H](n2cnc3c(N)ncnc32)[C@H](O)[C@@H]1OP(=O)(O)O; assay: purified protein, by the assay type; settings: other: pH 7.15, 30° C., 500 μM NADH, 1 mM DTT, acyl-CoA 0.03 mM to 2 mM
# Method: as §5
# [8] = CoA-acylating aldehyde dehydrogenase (PduP) assay, butyryl-CoA reduction; assay type: biochemical; settings: purified under aerobic condition; 500 μM NADH, 1 mM DTT, pH 7.15, 30° C.
# Method: as §1, §2, §3, §4
# [9] = Substrate chain length specificity of PduP; assay type: biochemical; settings: acyl-CoA chain lengths C2 to C12
# Method: FIG. 3A-B Substrate chain length specificity of CoA-acylating aldehyde dehydrogenases, PduP. A) Specific activity of different PduP (pmol min^−1 mg^−1). B) Relative activity of PduP. Specific activity was determined with substrate concentration of 1 mM acyl-CoA, 500 uM NADH, 1 mM DTT in 50 mM potassium phosphate buffer at pH 7.15 at 30° C.
# as §2, §3
Molecule,Km [6] [µM],Km [7] [µM],Specific activity for butyryl-CoA reduction [8] [µmol/min/mg],Acyl-CoA substrate favoured (highest specific activity) [9],other results
"CC(=O)SCCNC(=O)CCNC(=O)[C@H](O)C(C)(C)COP(=O)(O)OP(=O)(O)OC[C@H]1O[C@@H](n2cnc3c(N)ncnc32)[C@H](O)[C@@H]1OP(=O)(O)O [Acetyl-CoA, acetyl-CoA]",,,,,kcat [1]: 11.33 ± 0.97 s⁻¹; kcat [2]: 0.08 ± 0.01 s⁻¹; kcat [3]: 4.63 ± 0.19 s⁻¹; kcat [4]: 14.81 ± 1.00 s⁻¹; kcat [5]: 0.26 ± 0.10 s⁻¹
"Klebsiella pneumoniae PduP, CoA-acylating propionaldehyde dehydrogenase (PduP_K.pne, YP_001336844, SEQ ID NO:45 and 46), poly-His6 tagged (Klebsiella pneumoniae subsp. pneumoniae NTUH-K2044)",181.4 ± 25.1,56.0 ± 25.9,,,
"Listeria monocytigenes PduP, CoA-acylating propionaldehyde dehydrogenase (PduP_L.mon, NP_464690, SEQ ID NO:49 and 50), poly-His6 tagged (Listeria monocytogenes EGD-e)",92.6 ± 20.1,71.7 ± 20.3,,,
"Porphyromonas gingivalis PduP, CoA-acylating propionaldehyde dehydrogenase (PduP_P.gin, YP_001928839, SEQ ID NO:51 and 52), poly-His6 tagged (Porphyromonas gingivalis ATCC 33277)",75.9 ± 25.1,256.0 ± 40.5,,,
"Salmonella enterica PduP, CoA-acylating propionaldehyde dehydrogenase (PduP_S.ent, AAD39015, SEQ ID NO:33 and 34), poly-His6 tagged (Salmonella enterica subsp. enterica serovar Typhimurium str. LT2)",342.1 ± 94.8,87.0 ± 24.8,,,
B1,,,27 ± 14,highest for propionyl-CoA reduction,
B2,,,17 ± 2,highest for propionyl-CoA reduction,
B3,,,1.7 ± 0.6,,
B4,,,0.49 ± 0.2,dodecanoyl-CoA,
